Results on three variants are retold here after IntAct's records for PubMed 24947010.

To fix the notation:
B1: Parkinson disease protein 7 (Homo sapiens), Q99497 (parent)
chain: MASKRALVILAKGAEEMETVIPVDVMRRAGIKVTVAGLAGKDPVQCSRDVVICPDASLEDAKKEGPYDVVVLPGGNLGAQNLSESAAVKEILKEQENRKGLIAAICAGPTALLAHEIGFGSKVTTHPLAKDKMMNGGHYTYSENRVEKDGLILTSRGPGTSFEFALAIVEALNGKEVAAQVKAPLVLKD

The experiment covers variants of B1. Conditions: with rack1_human RACK1, P63244.
For the variant MASKRALVILAKGAEEMETVIPVDVMRRAGIKVTVAGLAGKDPVQSSRDVVICPDASLEDAKKEGPYDVVVLPGGNLGAQNLSESAAVKEILKEQENRKGLIAAICAGPTALLAHEIGFGSKVTTHPLAKDKMMNGGHYTYSENRVEKDGLILTSRGPGTSFEFALAIVEALNGKEVAAQVKAPLVLKD [C46S], the “effect of a mutation on the interaction” value is listed as “disrupting interaction strength”.
MASKRALVILAKGAEEMETVIPVDVMRRAGIKVTVAGLAGKDPVQCSRDVVISPDASLEDAKKEGPYDVVVLPGGNLGAQNLSESAAVKEILKEQENRKGLIAAICAGPTALLAHEIGFGSKVTTHPLAKDKMMNGGHYTYSENRVEKDGLILTSRGPGTSFEFALAIVEALNGKEVAAQVKAPLVLKD [C53S]: the “effect of a mutation on the interaction” value is on record as “decreasing interaction strength”.
Consider MASKRALVILAKGAEEMETVIPVDVMRRAGIKVTVAGLAGKDPVQCSRDVVICPDASLEDAKKEGPYDVVVLPGGNLGAQNLSESAAVKEILKEQENRKGLIAAISAGPTALLAHEIGFGSKVTTHPLAKDKMMNGGHYTYSENRVEKDGLILTSRGPGTSFEFALAIVEALNGKEVAAQVKAPLVLKD [C106S], for which the “effect of a mutation on the interaction” value is recorded as “disrupting interaction strength”.
